Source: patent US20150166643A1 (Alexion, published 2015)

How the values were obtained:
[1] = molecular target: T1, human factor B (purified, Complement Technology A135) (human, UniProt P00751 26-764); assay: cell-based or functional assay
[2] = molecular target: T1, human factor B (purified, Complement …); assay: SPR, captured mAb, soluble factor B (summary table)
Excerpt: (§1) Binding kinetics of mAbs were further characterized using Biacore's Surface Plasmon Resonance (SPR) technology (GE Healthcare, Piscataway, N.J.). For a detailed description of SPR and its applications in affinity measurement, please see Karlsson and Larsson, Antibody Engineering: Methods and Protocols, Methods in Molecular Biology (2003), 248: 389-415. In one exemplary experiment, TA106 Fab and derivative mAbs were captured on chips of a Biacore 3000 analyzer and samples of human factor B of different concentrations were flowed as the antigen over the surface to model soluble human factor B binding, using protocols recommended by the manufacturer (e.g., in the product brochure #BR-9003-31). All these referenced publications are hereby incorporated by reference in their entirety. […] Fab TA106 (Xoma, Lot#TTA1007, 20 mg/mL) was then flowed over one flow cell, followed by injections of human factor B on both flow cells. Concentrations (factor B) between 3.1-200 nM were run. The surface was regenerated between each cycle. […] The affinities of mAbs, i.e., CLS011, CLS012, and CLS013, were determined using a similar capture approach. In one exemplary experiment, human anti-Fc antibody was amine coupled to two flow cells of a CM5 chip. Each of the TA106-originated mAbs was then flowed over one flow cell, followed by injecting human factor B (3.1-200 nM) on both flow cells. […]

[3] = molecular target: T1, human factor B (purified, Complement …); assay: BLI (Octet), mAb on anti-human Fc biosensor, 25 nM human factor B
Method: (§2) Binding kinetics of TA106-originated mAbs were analyzed using a FortéBio® Octet® biosensor (FortéBio, Inc.) in a similar protocol as described previously. In one exemplary experiment, wild type (CLS011) and the variant S33A (CLS013) mAbs were captured on anti-human Fc biosensors at a concentration of 5 μg/mL, diluted in 1× kinetics buffer (KB, a proprietary formulation containing PBS/Tween). Capture (loading) was carried out for 400 seconds, followed by briefly dipping the biosensors in 1×KB as a wash for 30 seconds. Associations with a titration series of purified human Factor B (Complement Technology, Tyler, Tex.), which concentrations range from 50 to 3 nM (diluted in 1×KB), were carried out for 300 seconds.

[4] = molecular target: T1, human factor B (purified, Complement …); assay: BLI (Octet), mAb on anti-human Fc biosensor, 50 nM human factor B
Method: as §2

[5] = molecular target: T1, human factor B (purified, Complement …); assay: BLI (Octet), mAb on anti-human Fc biosensor, 12.5 nM human factor B
Method: as §2

[6] = molecular target: T1, human factor B (purified, Complement …); assay: SPR (Biacore 3000), mAb captured by anti-Fc antibody on CM5 chip, soluble human factor B 3.1-200 nM
Excerpt: as §1

[7] = molecular target: T1, human factor B (purified, Complement …); assay: SPR (Biacore), CLS011 captured on anti-Fc surface, soluble factor B 3.1-100 nM flowed; Chi2 0.283
Excerpt: as §1

[8] = molecular target: T1, human factor B (purified, Complement …); assay: SPR (Biacore), CLS013 captured on anti-Fc surface, soluble factor B 3.1-100 nM flowed; Chi2 1.05
Excerpt: as §1

[9] = molecular target: T1, human factor B (purified, Complement …); assay: ELISA, human factor B coated at 0.5 ug/mL, detection with sheep anti-human kappa light chain HRP, abs 450 nm against nM antibody
Method: The binding activities of these mAbs towards factor B were analyzed by ELISA using standard protocols. In one exemplary experiment, MaxiSorp™ ELISA plates (Nunc, #439454, Rochester, N.Y.) were coated with 50 μL of human factor B (Complement Technology, A135, 1 mg/mL, lot 14c) at a concentration of 0.5 μg/mL in carbonate coating buffer (0.795 g carbonate+1.46 g bicarbonate+1 mL 1% NaN₃ (final concentration of 0.002%) in 500 mL water, pH 9.6 (lot 02 August 10)). Plates then were covered with plate sealers and incubated at 37±1° C. for one hour. Following coating, wells were emptied of reagent and washed in a BioTek® ELx405 plate washer (BioTek, Winooski, Vt.) for three times with 200 μL wash solution (PBS/0.05% Tween 20) per well. Following washes, wells were blocked with 100 μL of BSA (1% w/v) and incubated for one hour at room temperature. Wells were then washed again as described above. Fifty microliter samples (i.e., TA106 Fab, CLS011 mAb, CLS012 mAb, and CLS013 mAb) were then added to wells and incubated for one hour at room temperature. […] The plate was read on a Benchmark™ microplate reader (Bio-Rad Laboratories, Hercules, Calif.) at 450 nm. Standard curves were plotted with 4 parameter fit with DeltaSoft® 1.6 software, and sample concentrations were determined from the standard curves.

T1 sequence (P00751 26-764): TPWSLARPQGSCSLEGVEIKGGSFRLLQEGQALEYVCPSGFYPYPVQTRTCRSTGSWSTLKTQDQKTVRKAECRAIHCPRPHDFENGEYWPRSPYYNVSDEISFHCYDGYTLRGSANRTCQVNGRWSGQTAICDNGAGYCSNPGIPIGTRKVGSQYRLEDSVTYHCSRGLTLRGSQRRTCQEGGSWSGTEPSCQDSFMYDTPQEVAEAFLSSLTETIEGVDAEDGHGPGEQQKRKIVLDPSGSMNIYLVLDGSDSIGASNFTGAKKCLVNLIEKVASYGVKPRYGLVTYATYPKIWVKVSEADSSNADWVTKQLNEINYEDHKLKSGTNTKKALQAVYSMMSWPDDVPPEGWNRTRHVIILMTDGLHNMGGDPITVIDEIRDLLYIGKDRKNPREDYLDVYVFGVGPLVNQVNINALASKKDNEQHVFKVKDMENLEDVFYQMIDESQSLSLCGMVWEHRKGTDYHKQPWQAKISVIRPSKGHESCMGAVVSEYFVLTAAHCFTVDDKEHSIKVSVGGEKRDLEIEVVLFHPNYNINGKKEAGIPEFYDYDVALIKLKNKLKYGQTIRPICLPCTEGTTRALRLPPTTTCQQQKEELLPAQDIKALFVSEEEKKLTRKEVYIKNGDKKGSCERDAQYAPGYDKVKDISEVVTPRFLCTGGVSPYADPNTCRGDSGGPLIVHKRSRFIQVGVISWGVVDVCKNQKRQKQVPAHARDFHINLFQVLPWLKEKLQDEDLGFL

| IC50 (read off the curve); lysis of rabbit red blood cells in 10% normal human serum [1] [nM] | Kd [2] [nM] | Kd [3] [nM] | koff [3] [s⁻¹] | kon [3] [M⁻¹ s⁻¹] | Kd [4] [nM] | koff [4] [s⁻¹] | kon [4] [M⁻¹ s⁻¹] | Kd [5] [nM] | koff [5] [s⁻¹] | kon [5] [M⁻¹ s⁻¹] | Kd [6] [nM] | koff [7] [s⁻¹] | kon [7] [M⁻¹ s⁻¹] | koff [8] [s⁻¹] | kon [8] [M⁻¹ s⁻¹] | EC50 (read off the curve) [9] [nM] | Binder |
| --- | --- | --- | --- | --- | --- | --- | --- | --- | --- | --- | --- | --- | --- | --- | --- | --- | --- |
| ~50 | 15 | 17.3 | 0.00297 | 171000 | 24.9 | 0.00418 | 168000 | 11.1 | 0.00289 | 261000 | ~15.4 | 0.00253 | 165000 |  |  |  | CLS011 (TA106-derivative full-length IgG2/4 mAb, wild type light chain, expressed in CHO cells) (antibody, V domains shown, N-linked glycans on the N31-S32-S33 motif of CDR1; N-linked glycans on the heavy chain (possibly at N296), Human IgG2/4 full-length mAb; also called CLS011 mAb; TA106-derivative mAb) VH: EVQLVQSGAEVKKPGASVKVSCKASGYSFTDYYMTWVRQAPGQGLEWMGWINPNSGGTKYAQKFQGRVTMTRDTSISTAYMELSRLRSDDTAVYYCARGYYANSAWFAYWGQGTLVTVSS VL: DIVMTQSPDSLAVSLGERATINCKSSQSLLNSSTSKNYLAWYQQKPGQPPKLLIYWASTRESGVPDRFSGSGSGTDFTLTISSLQAEDVAVYYCKQVYNLPWTFGQGTKLEIKR |
| ~20 | 18 | 52.2 | 0.00472 | 90300 | 32.1 | 0.00504 | 157000 | 37.7 | 0.00428 | 114000 | ~17.6 |  |  | 0.00311 | 177000 | ~0.4 | CLS013 (TA106-derivative S33A variant, full-length IgG2/4 mAb, expressed in CHO cells) (antibody, V domains shown, N-linked glycans on the heavy chain, Human IgG2/4 full-length mAb; also called CLS013 mAb; TA106 variant S33A) VH: EVQLVQSGAEVKKPGASVKVSCKASGYSFTDYYMTWVRQAPGQGLEWMGWINPNSGGTKYAQKFQGRVTMTRDTSISTAYMELSRLRSDDTAVYYCARGYYANSAWFAYWGQGTLVTVSS VL: DIVMTQSPDSLAVSLGERATINCKSSQSLLNSATSKNYLAWYQQKPGQPPKLLIYWASTRESGVPDRFSGSGSGTDFTLTISSLQAEDVAVYYCKQVYNLPWTFGQGTKLEIKR |
